Laboratory results as given in IntAct's records for PubMed 17157788.

B1: Protein AATF (Homo sapiens), Q9NY61 (parent)
chain: MAGPQPLALQLEQLLNPRPSEADPEADPEEATAARVIDRFDEGEDGEGDFLVVGSIRKLASASLLDTDKRYCGKTTSRKAWNEDHWEQTLPGSSDEEISDEEGSGDEDSEGLGLEEYDEDDLGAAEEQECGDHRESKKSRSHSAKTPGFSVQSISDFEKFTKGMDDLGSSEEEEDEESGMEEGDDAEDSQGESEEDRAGDRNSEDDGVVMTFSSVKVSEEVEKGRAVKNQIALWDQLLEGRIKLQKALLTTNQLPQPDVFPLFKDKGGPEFSSALKNSHKALKALLRSLVGLQEELLFQYPDTRYLVDGTKPNAGSEEISSEDDELVEEKKQQRRRVPAKRKLEMEDYPSFMAKRFADFTVYRNRTLQKWHDKTKLASGKLGKGFGAFERSILTQIDHILMDKERLLRRTQTKRSVYRVLGKPEPAAQPVPESLPGEPEILPQAPANAHLKDLDEEIFDDDDFYHQLLRELIERKTSSLDPNDQVAMGRQWLAIQKLRSKIHKKVDRKASKGRKLRFHVLSKLLSFMAPIDHTTMNDDARTELYRSLFGQLHPPDEGHGD

Variants of: B1
Conditions: with chk2_human CHEK2, O96017
Sequence of chk2_human CHEK2, O96017 (O96017 whole entry): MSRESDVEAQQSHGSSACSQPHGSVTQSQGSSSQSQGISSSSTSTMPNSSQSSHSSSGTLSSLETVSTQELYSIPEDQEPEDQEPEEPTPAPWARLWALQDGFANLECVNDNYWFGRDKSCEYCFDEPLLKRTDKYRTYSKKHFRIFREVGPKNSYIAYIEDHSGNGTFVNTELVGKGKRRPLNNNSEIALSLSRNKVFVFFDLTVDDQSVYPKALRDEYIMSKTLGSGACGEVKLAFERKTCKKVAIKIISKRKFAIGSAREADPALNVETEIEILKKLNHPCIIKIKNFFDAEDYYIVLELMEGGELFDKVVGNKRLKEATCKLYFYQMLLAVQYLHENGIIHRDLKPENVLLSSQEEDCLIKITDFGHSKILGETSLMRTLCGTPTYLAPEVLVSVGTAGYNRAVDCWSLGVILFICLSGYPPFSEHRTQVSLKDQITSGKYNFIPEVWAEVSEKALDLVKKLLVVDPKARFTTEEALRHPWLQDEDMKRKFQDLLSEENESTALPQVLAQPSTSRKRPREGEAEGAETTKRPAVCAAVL

Variant | effect of a mutation on the interaction
MAGPQPLALQLEQLLNPRPSEADPEADPEEATAARVIDRFDEGEDGEGDFLVVGSIRKLASASLLDTDKRYCGKTTSRKAWNEDHWEQTLPGSSDEEISDEEGSGDEDSEGLGLEEYDEDDLGAAEEQECGDHRESKKSRAHSAKTPGFSVQSISDFEKFTKGMDDLGSSEEEEDEESGMEEGDDAEDSQGESEEDRAGDRNSEDDGVVMTFSSVKVSEEVEKGRAVKNQIALWDQLLEGRIKLQKALLTTNQLPQPDVFPLFKDKGGPEFSSALKNSHKALKALLRSLVGLQEELLFQYPDTRYLVDGTKPNAGSEEISSEDDELVEEKKQQRRRVPAKRKLEMEDYPSFMAKRFADFTVYRNRTLQKWHDKTKLASGKLGKGFGAFERSILTQIDHILMDKERLLRRTQTKRSVYRVLGKPEPAAQPVPESLPGEPEILPQAPANAHLKDLDEEIFDDDDFYHQLLRELIERKTSSLDPNDQVAMGRQWLAIQKLRSKIHKKVDRAASKGRKLRFHVLSKLLSFMAPIDHTTMNDDARTELYRSLFGQLHPPDEGHGD [S141A;K508A] | decreasing interaction
MAGPQPLALQLEQLLNPRPSEADPEADPEEATAARVIDRFDEGEDGEGDFLVVGSIRKLASASLLDTDKRYCGKTTSRKAWNEDHWEQTLPGSSDEEISDEEGSGDEDSEGLGLEEYDEDDLGAAEEQECGDHRESKKSRAHSAKTPGFSVQSISDFEKFTKGMDDLGSSEEEEDEESGMEEGDDAEDSQGESEEDRAGDRNSEDDGVVMTFSSVKVSEEVEKGRAVKNQIALWDQLLEGRIKLQKALLTTNQLPQPDVFPLFKDKGGPEFSSALKNSHKALKALLRSLVGLQEELLFQYPDTRYLVDGTKPNAGSEEISSEDDELVEEKKQQRRRVPAKRKLEMEDYPSFMAKRFADFTVYRNRTLQKWHDKTKLASGKLGKGFGAFERSILTQIDHILMDKERLLRRTQTKRSVYRVLGKPEPAAQPVPESLPGEPEILPQAPANAHLKDLDEEIFDDDDFYHQLLRELIEAKTSSLDPNDQVAMGRQWLAIQKLRSKIHKKVDRKASKGRKLRFHVLSKLLSFMAPIDHTTMNDDARTELYRSLFGQLHPPDEGHGD [S141A;R474A] | decreasing interaction
MAGPQPLALQLEQLLNPRPSEADPEADPEEATAARVIDRFDEGEDGEGDFLVVGSIRKLASASLLDTDKRYCGKTTSRKAWNEDHWEQTLPGSSDEEISDEEGSGDEDSEGLGLEEYDEDDLGAAEEQECGDHRESKKSRSHAAKTPGFSVQSISDFEKFTKGMDDLGSSEEEEDEESGMEEGDDAEDSQGESEEDRAGDRNSEDDGVVMTFSSVKVSEEVEKGRAVKNQIALWDQLLEGRIKLQKALLTTNQLPQPDVFPLFKDKGGPEFSSALKNSHKALKALLRSLVGLQEELLFQYPDTRYLVDGTKPNAGSEEISSEDDELVEEKKQQRRRVPAKRKLEMEDYPSFMAKRFADFTVYRNRTLQKWHDKTKLASGKLGKGFGAFERSILTQIDHILMDKERLLRRTQTKRSVYRVLGKPEPAAQPVPESLPGEPEILPQAPANAHLKDLDEEIFDDDDFYHQLLRELIERKTASLDPNDQVAMGRQWLAIQKLRSKIHKKVDRKAAKGRKLRFHVLSKLLSFMAPIDHTTMNDDARTELYRSLFGQLHPPDEGHGD [S143A;S477A;S510A] | disrupting interaction

Variants of: B1
Conditions: with tf65_human RELA

Variant | effect of a mutation on the interaction
MAGPQPLALQLEQLLNPRPSEADPEADPEEATAARVIDRFDEGEDGEGDFLVVGSIRKLASASLLDTDKRYCGKTTSRKAWNEDHWEQTLPGSSDEEISDEEGSGDEDSEGLGLEEYDEDDLGAAEEQECGDHRESKKSRSHAAKTPGFSVQSISDFEKFTKGMDDLGSSEEEEDEESGMEEGDDAEDAQGESEEDRAGDRNSEDDGVVMTFSSVKVSEEVEKGRAVKNQIALWDQLLEGRIKLQKALLTTNQLPQPDVFPLFKDKGGPEFSSALKNSHKALKALLRSLVGLQEELLFQYPDTRYLVDGTKPNAGSEEISSEDDELVEEKKQQRRRVPAKRKLEMEDYPSFMAKRFADFTVYRNRTLQKWHDKTKLASGKLGKGFGAFERSILTQIDHILMDKERLLRRTQTKRSVYRVLGKPEPAAQPVPESLPGEPEILPQAPANAHLKDLDEEIFDDDDFYHQLLRELIERKTASLDPNDQVAMGRQWLAIQKLRSKIHKKVDRKAAKGRKLRFHVLSKLLSFMAPIDHTTMNDDARTELYRSLFGQLHPPDEGHGD [S143A;S189A;S477A;S510A] | disrupting interaction

Variants of: B1
Conditions: with atm_human ATM

Variant | effect of a mutation on the interaction
MAGPQPLALQLEQLLNPRPSEADPEADPEEATAARVIDRFDEGEDGEGDFLVVGSIRKLASASLLDTDKRYCGKTTSRKAWNEDHWEQTLPGSSDEEISDEEGSGDEDSEGLGLEEYDEDDLGAAEEQECGDHRESKKSRSHSAKTPGFSVQSISDFEKFTKGMDDLGSSEEEEDEESGMEEGDDAEDAQGESEEDRAGDRNSEDDGVVMTFSSVKVSEEVEKGRAVKNQIALWDQLLEGRIKLQKALLTTNQLPQPDVFPLFKDKGGPEFSSALKNSHKALKALLRSLVGLQEELLFQYPDTRYLVDGTKPNAGSEEISSEDDELVEEKKQQRRRVPAKRKLEMEDYPSFMAKRFADFTVYRNRTLQKWHDKTKLASGKLGKGFGAFERSILTQIDHILMDKERLLRRTQTKRSVYRVLGKPEPAAQPVPESLPGEPEILPQAPANAHLKDLDEEIFDDDDFYHQLLRELIERKTSSLDPNDQVAMGRQWLAIQKLRSKIHKKVDRKASKGRKLRFHVLSKLLSFMAPIDHTTMNDDARTELYRSLFGQLHPPDEGHGD [S189A] | disrupting interaction
